System: immunocomplexes of CCPH variants and anti-Adda mAb
Experiment: Screening and cross-reactivity studies of anti-IC scFv-AP binders, specificity class
Format: binding

Molecule | Specificity of anti-IC antibody (CCPH immunocomplexes recognized)
SA51F6: group-specific anti-immunocomplex antibody (antibody, V domains shown, Clone SA51F6; DOMAIN (31)..(35) CDR1; DOMAIN (50)..(66) CDR2; DOMAIN (99)..(108) CDR3; DOMAIN (24)..(35) CDR1; DOMAIN (51)..(57) CDR2; DOMAIN (90)..(98) CDR3) VH: EVQLLESGGGLVQPGGSLRLSCAASGFTFSDYWMHWVRQAPGKGLEWVSEIWYSSGYTNYADSVKGRFTISRDNSKNTLYLQMNSLRAEDTAVYYCARDAFPWDVFDYWGQGTLVTVSS VL: EIVLTQSPGTLSLSPGERATLSCRASQSVSSSYLAWYQQKPGQAPRLLIYGASSRATGVPDRFSGSGSGTDFTLTISRLEPEDFAVYYCQQSSSTPWTFGQGTKVEIKRT | group-specific
SA56D5: subgroup specific anti-IC antibody with MC-LR preferring specificity (antibody, V domains shown, Clone SA56D5; DOMAIN (31)..(35) CDR1; DOMAIN (50)..(66) CDR2; DOMAIN (99)..(112) CDR3; DOMAIN (24)..(35) CDR1; DOMAIN (51)..(57) CDR2; DOMAIN (90)..(98) CDR3) VH: EVQLLESGGGLVQPGGSLRLSCAASGFTFSDYYMHWVRQAPGKGLEWVSYIDGNGGYTDYADSVKGRFTISRDNSKNTLYLQMNSLRAEDTAVYYCARYWFDSSYKHRYFDYWGQGTLVTVSS VL: EIVLTQSPGTLSLSPGERATLSCRASQSVSSSNLAWYQQKPGQAPRLLIYGASSRATGVPDRFSGSGSGTDFTLTISRLEPEDFAVYYCQQSSSYPWTFGQGTKVEIKRT | MC-LR preferring specificity
SA57A3: subgroup specific anti-IC antibody with MC-LR preferring specificity (antibody, V domains shown, Clone SA57A3; DOMAIN (31)..(35) CDR1; DOMAIN (50)..(66) CDR2; DOMAIN (99)..(111) CDR3; DOMAIN (24)..(35) CDR1; DOMAIN (51)..(57) CDR2; DOMAIN (90)..(98) CDR3) VH: EVQLLESGGGLVQPGGSLRLSCAASGFTFSDYYMHWVRQAPGKGLEWVSYINTYDGNTDYADSVKGRFTISRDNSKNTLYLQMNSLRAEDTAVYYCARYYNPYTRRRVFDYWGQGTLVTVSS VL: EIVLTQSPGTLSLSPGERATLSCRASQSVSSSNLAWYQQKPGQAPRLLIYGASSRATGVPDRFSGSGSGTDFTLTISRLEPEDFAVYYCQQSSSYPWTFGQGTKVEIKRT | MC-LR preferring specificity
SA60A1: subgroup specific anti-IC antibody with MC-LR preferring specificity (antibody, V domains shown, Clone SA60A1; DOMAIN (31)..(35) CDR1; DOMAIN (50)..(66) CDR2; DOMAIN (99)..(112) CDR3; DOMAIN (24)..(35) CDR1; DOMAIN (51)..(57) CDR2; DOMAIN (90)..(98) CDR3) VH: EVQLLESGGGLVQPGGSLRLSCAASGFTFSPYYMHWVRQAPGKGLEWVSYITPYDGYTDYADSVKGRFTISRDNSKNTLYLQMNSLRAEDTAVYYCARYSYVGSVRTRVFDYWGQGTLVTVSS VL: EIVLTQSPGTLSLSPGERATLSCRASQSVSSSNLAWYQQKPGQAPRLLIYGASSRATGVPDRFSGSGSGTDFTLTISRLEPEDFAVYYCQQSYSYPWTFGQGTKVEIKRT | MC-LR preferring specificity
SA42E10: MC subgroup-specific anti-IC binder (antibody, V domains shown, Clone SA42E10; DOMAIN (31)..(35) CDR1; DOMAIN (50)..(66) CDR2; DOMAIN (99)..(114) CDR3; DOMAIN (24)..(35) CDR1; DOMAIN (51)..(57) CDR2; DOMAIN (90)..(98) CDR3) VH: EVQLLESGGGLVQPGGSLRLSCAASGFTFSDYAMHWVRQAPGKGLEWVSSIIPYTGTTDYADSVKGRFTISRDNSKNTLYLQMNSLRAEDTAVYYCARTDDLIGHYDVYYYFDYWGQGTLVTVSS VL: EIVLTQSPGTLSLSPGERATLSCRASQSVSSSYLAWYQQKPGQAPRLLIYGASSRATGVPDRFSGSGSGTDFTLTISRLEPEDFAVYYCQQSSSLPWTFGQGTKVEIKRT | MC subgroup-specific
SA52C2: MC subgroup-specific anti-IC binder (antibody, V domains shown, Clone SA52C2; DOMAIN (31)..(35) CDR1; DOMAIN (50)..(66) CDR2; DOMAIN (99)..(107) CDR3; DOMAIN (24)..(35) CDR1; DOMAIN (51)..(57) CDR2; DOMAIN (90)..(98) CDR3) VH: EVQLLESGGGLVQPGGSLRLSCAASGFTFSSDVMHWVRQAPGKGLEWVSEIDPSDGTTNYADSVKGRFTISRDNSKNTLYLQMNSLRAEDTAVYYCARSYLDWPLDVWGQGTLVTVSS VL: EIVLTQSPGTLSLSPGERATLSCRASQSVSSSNLAWYQQKPGQAPRLLIYGASSRATGVPDRFSGSGSGTDFTLTISRLEPEDFAVYYCQQMHSTPWTFGQGTKVEIKRT | MC subgroup-specific
SA41A5: MC-XR subgroup-specific anti-IC antibody (antibody, V domains shown, Clone SA41A5; DOMAIN (31)..(35) CDR1; DOMAIN (50)..(66) CDR2; DOMAIN (99)..(108) CDR3; DOMAIN (24)..(35) CDR1; DOMAIN (51)..(57) CDR2; DOMAIN (90)..(98) CDR3) VH: EVQLLESGGGLVQPGGSLRLSCAASGFTFSNYYMHWVRQAPGKGLEWVSEINYDGETDYADSVKGRFTISRDNSKNTLYLQMNSLRAEDTAVYYCARDGFWYGTAFDYWGQGTLVTVSS VL: EIVLTQSPGTLSLSPGERATLSCRASQSVSSSALAWYQQKPGQAPRLLIYGASSRATGVPDRFSGSGSGTDFTLTISRLEPEDFAVYYCQQMHSTPWTFGQGTKVEIKRT | specific for a subgroup MC-XR
SA51H4: MC-XR subgroup-specific anti-IC antibody (antibody, V domains shown, Clone SA51H4; DOMAIN (31)..(35) CDR1; DOMAIN (50)..(66) CDR2; DOMAIN (99)..(108) CDR3; DOMAIN (24)..(35) CDR1; DOMAIN (51)..(57) CDR2; DOMAIN (90)..(98) CDR3) VH: EVQLLESGGGLVQPGGSLRLSCAASGFTFSDYWMHWVRQAPGKGLEWVSEIWPYDGYTNYADSVKGRFTISRDNSKNTLYLQMNSLRAEDTAVYYCARDPGPEGVFDYWGQGTLVTVSS VL: EIVLTQSPGTLSLSPGERATLSCRASQSVSSSNLAWYQQKPGQAPRLLIYGASSRATGVPDRFSGSGSGTDFTLTISRLEPEDFAVYYCQQSSSYPWTFGQGTKVEIKRT | specific for a subgroup MC-XR
SA41F2: XR subgroup-specific anti-IC antibody (antibody, V domains shown, Clone SA41F2; DOMAIN (31)..(35) CDR1; DOMAIN (50)..(66) CDR2; DOMAIN (99)..(110) CDR3; DOMAIN (24)..(35) CDR1; DOMAIN (51)..(57) CDR2; DOMAIN (90)..(98) CDR3) VH: EVQLLESGGGLVQPGGSLRLSCAASGFTFSNYGMHWVRQAPGKGLEWVSEIDYVDGNTYYADSVKGRFTISRDNSKNTLYLQMNSLRAEDTAVYYCAREVYAHGIAAFDYWGQGTLVTVSS VL: EIVLTQSPGTLSLSPGERATLSCRASQSVSSSALAWYQQKPGQAPRLLIYGASSRATGVPDRFSGSGSGTDFTLTISRLEPEDFAVYYCQQYSSTPWTFGQGTKVEIKRT | specific for a subgroup XR
SA52B4: XR subgroup-specific anti-IC antibody (antibody, V domains shown, Clone SA52B4; DISULFID (31)..(35) CDR1; DISULFID (50)..(66) CDR2; DISULFID (99)..(110) CDR3; DOMAIN (24)..(35) CDR1; DOMAIN (51)..(57) CDR2; DOMAIN (90)..(98) CDR3) VH: EVQLLESGGGLVQPGGSLRLSCAASGFTFSDYSMHWVRQAPGKGLEWVSEIWTNTGYTNYADSVKGRFTISRDNSKNTLYLQMNSLRAEDTAVYYCARESWEWFSIVFDYWGQGTLVTVSS VL: EIVLTQSPGTLSLSPGERATLSCRASQSVSSSALAWYQQKPGQAPRLLIYGASSRATGVPDRFSGSGSGTDFTLTISRLEPEDFAVYYCQQYSSTPWTFGQGTKVEIKRT | specific for a subgroup XR
SA33D5: XR subgroup-specific anti-IC antibody (antibody, V domains shown, Clone SA33D5; DOMAIN (31)..(35) CDR1; DOMAIN (50)..(66) CDR2; DOMAIN (99)..(112) CDR3; DOMAIN (24)..(35) CDR1; DOMAIN (51)..(57) CDR2; DOMAIN (90)..(98) CDR3) VH: EVQLLESGGGLVQPGGSLRLSCAASGFTFSSDVMHWVRQAPGKGLEWVSEIDPNDGSTRYADSVKGRFTISRDNSKNTLYLQMNSLRAEDTAVYYCAREYGAVSWSVVVFDYWGQGTLVTVSS VL: EIVLTQSPGTLSLSPGERATLSCRASQSVSSSNLAWYQQKPGQAPRLLIYGASSRATGVPDRFSGSGSGTDFTLTISRLEPEDFAVYYCQQSSSYPWTFGQGTKVEIKRT | specific for a subgroup XR
SA59G2: variant-specific anti-IC antibody, MC-LR (antibody, V domains shown, Clone SA59G2; DOMAIN (31)..(35) CDR1; DOMAIN (51)..(66) CDR2; DOMAIN (99)..(109) CDR3; DOMAIN (24)..(35) CDR1; DOMAIN (51)..(57) CDR2; DOMAIN (90)..(98) CDR3) VH: EVQLLESGGGLVQPGGSLRLSCAASGFTFSNYYMHWVRQAPGKGLEWVSYIDPVGGETYYADSVKGRFTISRDNSKNTLYLQMNSLRAEDTAVYYCARYYYWGYRAFDYWGQGTLVTVSS VL: EIVLTQSPGTLSLSPGERATLSCRASQSVSSSALAWYQQKPGQAPRLLIYGASSRATGVPDRFSGSGSGTDFTLTISRLEPEDFAVYYCQQSSSLPWTFGQGTKVEIKRT | recognize immunocomplexes comprising MC-LR

— US10808024B2, “Antibodies against immunocomplexes comprising cyanobacterial cyclic peptide hepatotoxins” (priority 2015, dated 2020)
